Results: patent US20220089784A1 (University of California, published 2022)
Like-named read-outs stand apart in the source and are kept apart here.

T1: BoNT/F1 (proteolytic BoNT/F) (Clostridium botulinum, UniProt A7GBG3 1-1278)
T1 sequence: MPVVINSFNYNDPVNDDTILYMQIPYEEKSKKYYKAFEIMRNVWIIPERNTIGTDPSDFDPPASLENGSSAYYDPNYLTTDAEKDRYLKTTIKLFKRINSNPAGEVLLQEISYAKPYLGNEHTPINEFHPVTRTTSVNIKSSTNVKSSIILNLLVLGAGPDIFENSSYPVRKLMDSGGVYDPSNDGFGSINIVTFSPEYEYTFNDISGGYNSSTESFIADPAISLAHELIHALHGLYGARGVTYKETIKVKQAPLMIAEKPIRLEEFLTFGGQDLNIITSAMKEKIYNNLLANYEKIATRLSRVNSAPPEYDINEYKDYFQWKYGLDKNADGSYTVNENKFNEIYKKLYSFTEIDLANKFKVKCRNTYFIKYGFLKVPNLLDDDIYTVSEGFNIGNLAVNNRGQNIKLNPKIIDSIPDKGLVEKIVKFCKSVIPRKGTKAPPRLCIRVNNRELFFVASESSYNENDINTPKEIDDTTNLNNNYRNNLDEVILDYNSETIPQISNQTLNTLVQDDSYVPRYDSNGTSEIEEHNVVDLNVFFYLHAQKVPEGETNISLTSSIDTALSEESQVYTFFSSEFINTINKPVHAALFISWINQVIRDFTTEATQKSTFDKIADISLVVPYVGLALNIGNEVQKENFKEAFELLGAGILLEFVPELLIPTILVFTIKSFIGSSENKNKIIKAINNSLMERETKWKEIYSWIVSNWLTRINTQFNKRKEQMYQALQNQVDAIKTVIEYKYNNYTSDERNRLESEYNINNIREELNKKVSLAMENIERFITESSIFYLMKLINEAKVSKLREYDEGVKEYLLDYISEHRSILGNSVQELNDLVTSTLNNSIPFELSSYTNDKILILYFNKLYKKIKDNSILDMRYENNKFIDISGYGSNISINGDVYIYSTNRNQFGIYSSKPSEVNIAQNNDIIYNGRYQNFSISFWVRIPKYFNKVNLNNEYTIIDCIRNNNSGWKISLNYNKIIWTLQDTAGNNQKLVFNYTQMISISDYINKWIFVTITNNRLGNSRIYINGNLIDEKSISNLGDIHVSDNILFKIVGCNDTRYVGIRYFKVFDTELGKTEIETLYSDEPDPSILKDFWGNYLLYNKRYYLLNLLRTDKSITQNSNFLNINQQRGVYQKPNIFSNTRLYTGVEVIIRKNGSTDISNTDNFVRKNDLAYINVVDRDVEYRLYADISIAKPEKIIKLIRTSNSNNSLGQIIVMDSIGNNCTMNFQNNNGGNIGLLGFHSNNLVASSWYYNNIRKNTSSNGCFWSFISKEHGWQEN

T2: BoNT/C1 holotoxin (Clostridium botulinum, UniProt P18640 2-1291)
T2 sequence: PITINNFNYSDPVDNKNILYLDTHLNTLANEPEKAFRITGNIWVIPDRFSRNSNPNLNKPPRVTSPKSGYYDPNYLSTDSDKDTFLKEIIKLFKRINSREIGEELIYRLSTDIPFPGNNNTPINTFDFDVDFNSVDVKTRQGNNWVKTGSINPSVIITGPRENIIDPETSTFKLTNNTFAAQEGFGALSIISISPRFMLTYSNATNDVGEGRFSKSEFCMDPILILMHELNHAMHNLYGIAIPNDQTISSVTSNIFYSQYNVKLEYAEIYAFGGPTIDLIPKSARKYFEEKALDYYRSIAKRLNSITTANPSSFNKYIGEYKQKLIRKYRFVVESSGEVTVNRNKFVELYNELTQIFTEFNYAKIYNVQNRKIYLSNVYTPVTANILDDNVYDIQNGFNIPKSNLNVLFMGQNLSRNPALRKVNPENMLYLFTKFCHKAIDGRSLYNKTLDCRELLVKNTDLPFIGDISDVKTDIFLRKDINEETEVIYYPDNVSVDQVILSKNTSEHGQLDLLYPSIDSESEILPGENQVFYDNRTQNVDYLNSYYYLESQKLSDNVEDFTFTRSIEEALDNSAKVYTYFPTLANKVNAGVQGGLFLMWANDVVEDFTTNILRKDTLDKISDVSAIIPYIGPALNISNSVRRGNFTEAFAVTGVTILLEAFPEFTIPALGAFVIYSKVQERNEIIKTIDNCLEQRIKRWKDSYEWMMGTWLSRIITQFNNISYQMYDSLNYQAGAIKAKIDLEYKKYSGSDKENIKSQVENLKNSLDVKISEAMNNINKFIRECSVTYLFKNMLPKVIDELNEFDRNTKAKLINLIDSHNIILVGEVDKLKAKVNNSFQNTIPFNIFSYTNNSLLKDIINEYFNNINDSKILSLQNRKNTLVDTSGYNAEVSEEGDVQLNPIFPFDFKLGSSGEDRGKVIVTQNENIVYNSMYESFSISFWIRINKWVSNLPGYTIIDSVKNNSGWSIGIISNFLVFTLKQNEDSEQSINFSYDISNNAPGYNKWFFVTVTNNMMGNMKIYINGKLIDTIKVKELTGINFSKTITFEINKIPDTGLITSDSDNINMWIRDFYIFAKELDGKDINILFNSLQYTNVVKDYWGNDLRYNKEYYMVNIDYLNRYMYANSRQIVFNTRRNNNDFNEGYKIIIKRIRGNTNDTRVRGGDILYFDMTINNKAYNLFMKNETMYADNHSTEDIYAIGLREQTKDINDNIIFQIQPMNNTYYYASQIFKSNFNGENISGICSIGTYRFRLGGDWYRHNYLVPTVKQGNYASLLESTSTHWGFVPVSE

T3: BoNT/D (Clostridium botulinum, UniProt P19321 2-1276)
T3 sequence: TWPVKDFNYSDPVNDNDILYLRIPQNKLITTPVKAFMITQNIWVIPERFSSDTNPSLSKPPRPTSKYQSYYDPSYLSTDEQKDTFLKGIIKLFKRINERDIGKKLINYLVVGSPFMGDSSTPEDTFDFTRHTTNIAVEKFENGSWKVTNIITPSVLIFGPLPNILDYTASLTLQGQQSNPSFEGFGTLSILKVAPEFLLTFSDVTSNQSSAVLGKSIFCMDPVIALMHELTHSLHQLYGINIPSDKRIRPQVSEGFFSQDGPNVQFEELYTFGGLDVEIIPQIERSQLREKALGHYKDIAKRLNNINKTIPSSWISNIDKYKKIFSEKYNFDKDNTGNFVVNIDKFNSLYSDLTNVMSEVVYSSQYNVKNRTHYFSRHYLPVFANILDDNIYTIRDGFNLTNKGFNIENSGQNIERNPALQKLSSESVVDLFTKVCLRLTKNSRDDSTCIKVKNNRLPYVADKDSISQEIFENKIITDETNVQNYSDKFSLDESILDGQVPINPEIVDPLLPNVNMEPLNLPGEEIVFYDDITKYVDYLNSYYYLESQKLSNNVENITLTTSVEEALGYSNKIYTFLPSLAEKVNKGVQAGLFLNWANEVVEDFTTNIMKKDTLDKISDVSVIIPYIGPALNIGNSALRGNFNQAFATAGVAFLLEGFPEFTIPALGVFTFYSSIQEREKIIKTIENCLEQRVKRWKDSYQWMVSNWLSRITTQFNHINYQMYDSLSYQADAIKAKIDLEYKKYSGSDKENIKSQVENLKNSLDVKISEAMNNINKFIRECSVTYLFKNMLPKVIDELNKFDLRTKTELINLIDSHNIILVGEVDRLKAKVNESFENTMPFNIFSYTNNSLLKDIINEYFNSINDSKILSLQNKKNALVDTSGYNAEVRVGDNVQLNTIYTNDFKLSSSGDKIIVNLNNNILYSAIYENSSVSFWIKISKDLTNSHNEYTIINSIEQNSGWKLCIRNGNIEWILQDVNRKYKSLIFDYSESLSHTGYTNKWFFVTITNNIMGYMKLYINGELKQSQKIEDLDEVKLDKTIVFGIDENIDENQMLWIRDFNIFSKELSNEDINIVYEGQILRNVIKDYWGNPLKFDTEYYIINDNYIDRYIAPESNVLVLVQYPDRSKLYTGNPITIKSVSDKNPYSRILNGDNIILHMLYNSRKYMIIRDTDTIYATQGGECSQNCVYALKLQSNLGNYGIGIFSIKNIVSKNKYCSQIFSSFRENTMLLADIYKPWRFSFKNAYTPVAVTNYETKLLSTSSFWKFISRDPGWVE

B1: 28H4 scFv (scFv, V domains shown)
VH: EVQLQQSGAELAKPGASVKLSCKASGYTFTSYWMHWVKQGPGQGLEWIGAIYPGNSDTGYNQKFKGKAKLTAVTSASTAYMELSSLTNEDSAVYYCTRHGYYIYALDYWGQGTSVTVSS
VL: DIVLTQSPAIMSASPGEKVTMTCSASSSVSYMYWYQQKPGSSPKPWIYRTSNLASGVPVRFSGSGSGTSYSLTISSMEAEDAATYYCQQYHNFPPTFGGGTKLEIK
B2: 30C8 scFv (scFv, V domains shown)
VH: EVQLKQSGTELVKPRSSVKMSCKASGYTFTDYWIGWTKQRPGHGLEWIGHIYPGGGYTNYNEKFKGKATLTADISSSAAYMQFSSPTSEDSAIYYCARIIMVESGDWYFDVWGTGTTLTVSS
VL: DIVLTQSPAIMSASLGEEITLTCSASSSVSYMHWYQQKSGTSPKLLIYSTSNLASGVPSRFSGSGSGTSYSLTISNMEAEDAATYYCQQWSSNPYTFGGGTKLELK
B3: 29B8 scFv (scFv, V domains shown)
VH: EVQLQQSGAELVKPGASVKLSCTASGFNIKDYYMHWVKQRTEQGLEWIGRIDPEDGETKYAPKFQGKATITADTSSNTAYLQLSSLTSEDTAVYYCVSLLRSRTGYFDYWGQGTTLTVSS
VL: ENVLTQSPAIMSASPGEKVTMTCSASSSVSYMHWYQQKSGTSPKRWIYDTSNLAPGVPARFSGSGSGTSYSLTISSMEAEDAASYFCHQWSSYPYTFGGGTKLEIK
B4: 8DC3 scFv (scFv, V domains shown)
VH: QVQLVQSGGGLVKPGGSLRLSCAASGFTFSSHSMNWVRQAPGKGLEWVSSISSSSSYIYYADSVKGRFTISRDNSKNSLYLQLNSLRAEDTAVYYCARGDHDFRSGYYGMDVWGQGTMVTVSS
VL: AELTQDPAVSVALGQTVRITCQGDSLRNYYASWYQQKPGQAPVLVIYGKNIRPSGIPDRFSGSSSGNTASLTITGAQAEDEADYYCNSRDSNGNHYVFGTGTKVTVL
notes: human
B5: 29A2 scFv (scFv, V domains shown)
VH: EVQLLETGGDLVKPGGSLKLSCAASGFTFSYYGMSWVRQTPDKRLEWVATISSGGSYTYYPDSVKGRFTISRDNAKNTLYLQMSSLKSEDTAMYYCARRRVYYGSSYEDYWGQGTTLTVSS
VL: EIVLTQSPALMSASPGEKVTMTCSASSSVSYMYWYQQKPRSSPKPWIYLTSNLASGVPARFSGSGSGTSYSLTISSMEAEDAATYYCQQWSSNPYTFGGGTKLELK
B6: 8DC2 scFv (scFv, V domains shown)
VH: QVQLVQSGAEVKKPGSSVKVSCKTSGGTFRNFAISWVRQAPGQGLEWMGGIIPMFGKGHYAQNFQGRVTITADDSTTTAYMELSSLRYEDTAVYYCARGTRNGSLRDAFDIWGQGTTVTVSS
VL: ASVLTQDPSASGSPGQSVTISCTGTSSDVGGYNYVSWYQQHPGKAPKLMIYDVSNRPSEVPDRFSGSKSGNTASLTVSGLQAEDEADYYCSSYAGSNKRVFGGGTKLTVL
notes: human
B7: 6A2M IgG (antibody, V domains shown)
VH: EVQLQQSGAELVRPGTSVKLSCKSSGYTFTSDWMHWVIQRPGQGLEWIGVIDPSDSYTNYNQKFKGKATLTVDTSSSTAYMHLSSLTSEDSAVYYCARREGHYYGKAMDYWGQGTSVTVSS
VL: DIVMSQSPASLAVSLGQRATISCRASESVDYDGDSYMNWYQQKPGQPPKLLIYAASNLESGIPARFSGSGSGTDFTLNIHPVEEEDAATYYCLQSNEAPWTFGGGTKLEIK
notes: IgG converted from scFv
B8: 28C11 scFv (scFv, V domains shown)
VH: EVQLQESGGDLVKPGGSLKLSCAASGFTFSYYGMSWVRQTPDKRLEWVATISSGGTYTYYPDSVKGRFTISRDNAKNTLYLQMSSLSSEDTAMYYCARRRSYDSVYWYFDVWGAGTSVTVSS
VL: DIVLTQSPAITAASLGQKVTITCSASSSGSYIHWYQQKSGTSPKLLIYRTSNLASGVPSRFSGSGSGTFYSLTISSVEAEDAADYFCHQWSSYPTFGGGTKLEIK

Tests used:
[1] = target: T1, BoNT/F1 (proteolytic BoNT/F); experiment: yeast scFv FACS
[2] = target: T1, BoNT/F1 (proteolytic BoNT/F); experiment: yeast scFv FACS; remark: listed apart in the source
BoNT/C1 holotoxin = target: T2, BoNT/C1 holotoxin; experiment: yeast scFv FACS
BoNT/D = target: T3, BoNT/D; experiment: yeast scFv FACS
[3] = target: BoNT/A light chain (recombinant) (Clostridium botulinum, UniProt P0DPI0 1-448); experiment: KinExA, IgG
Chain of BoNT/A light chain (recombinant) (P0DPI0 1-448 limits assumed): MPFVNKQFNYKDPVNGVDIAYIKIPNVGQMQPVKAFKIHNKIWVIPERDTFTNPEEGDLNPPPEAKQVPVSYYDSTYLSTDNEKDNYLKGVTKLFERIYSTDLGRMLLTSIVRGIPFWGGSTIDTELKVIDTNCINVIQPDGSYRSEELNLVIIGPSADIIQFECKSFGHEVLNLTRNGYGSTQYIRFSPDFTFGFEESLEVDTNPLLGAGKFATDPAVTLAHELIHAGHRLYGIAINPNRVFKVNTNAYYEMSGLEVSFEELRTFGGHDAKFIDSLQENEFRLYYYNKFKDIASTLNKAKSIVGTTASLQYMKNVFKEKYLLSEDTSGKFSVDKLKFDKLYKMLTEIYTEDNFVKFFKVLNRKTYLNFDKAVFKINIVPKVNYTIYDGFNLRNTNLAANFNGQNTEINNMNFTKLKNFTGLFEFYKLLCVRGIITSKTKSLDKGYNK

| Binder | Kd [1] | Kd [2] | binding result (BoNT/C1 holotoxin) | binding result (BoNT/D) | Kd [3] |
| --- | --- | --- | --- | --- | --- |
| B1 | 20000 pM | 20000 pM |  |  |  |
| B2 | 200 pM | 200 pM |  |  |  |
| B3 | 35800 pM | 35800 pM |  |  |  |
| B4 |  |  | no binding (tested: ~1 µM) | binds |  |
| B5 | 990 pM | 990 pM |  |  |  |
| B6 |  |  | binds | no binding (tested: ~1 µM) |  |
| B7 |  |  |  |  | 45000 pM |
| B8 | 120 pM | 120 pM |  |  |  |
